Test results as given in US20110200528A1 (GOVERNMENT OF THE UNITED STATES OF AMERICA, published 2011).
Each block holds one molecule with its values, some of them ahead of it. OG = Oregon Green 488 (6-isomer carboxylic acid) on Lys side chain

Key:
[1] = biological target: aminopeptidase N isoform CD13 (APN/CD13) on HT-1080 human fibrosarcoma cells (human) (UniProt P15144); experiment: flow cytometry on HT-1080 cells
[2] = biological target: aminopeptidase N isoform CD13 (APN/CD13) on HT-1080 human fibrosarcoma cells (human) (UniProt P15144); experiment: flow cytometry on CD13-positive HT-1080 cells; reference: liposome with a linear peptide
[3] = biological target: T1, aminopeptidase N isoform CD13 (APN/CD13) on HT-1080 human fibrosarcoma cells (human, UniProt P15144 2-967); experiment: flow cytometry on CD13-positive HT-1080 cells
T1 construct: whole, on cells; also called CD13/APN marker
Experimental: To determine the half maximal effective concentration (EC₅₀) of cK(OG)NGRE (SEQ ID NO:2) and low temperature sensitive liposomes targeted with 5 mol % DSPE-PEG-cNGR, flow cytometry was performed according to standard procedures with HT-1080 cells. Approximately 94% of the HT-1080 cells were positive for the WM15 antibody indicating the presence of CD13 on these cells.

Sequence of aminopeptidase N isoform CD13 (APN/CD13) on HT-1080 human fibrosarcoma cells (human) (P15144 2-967): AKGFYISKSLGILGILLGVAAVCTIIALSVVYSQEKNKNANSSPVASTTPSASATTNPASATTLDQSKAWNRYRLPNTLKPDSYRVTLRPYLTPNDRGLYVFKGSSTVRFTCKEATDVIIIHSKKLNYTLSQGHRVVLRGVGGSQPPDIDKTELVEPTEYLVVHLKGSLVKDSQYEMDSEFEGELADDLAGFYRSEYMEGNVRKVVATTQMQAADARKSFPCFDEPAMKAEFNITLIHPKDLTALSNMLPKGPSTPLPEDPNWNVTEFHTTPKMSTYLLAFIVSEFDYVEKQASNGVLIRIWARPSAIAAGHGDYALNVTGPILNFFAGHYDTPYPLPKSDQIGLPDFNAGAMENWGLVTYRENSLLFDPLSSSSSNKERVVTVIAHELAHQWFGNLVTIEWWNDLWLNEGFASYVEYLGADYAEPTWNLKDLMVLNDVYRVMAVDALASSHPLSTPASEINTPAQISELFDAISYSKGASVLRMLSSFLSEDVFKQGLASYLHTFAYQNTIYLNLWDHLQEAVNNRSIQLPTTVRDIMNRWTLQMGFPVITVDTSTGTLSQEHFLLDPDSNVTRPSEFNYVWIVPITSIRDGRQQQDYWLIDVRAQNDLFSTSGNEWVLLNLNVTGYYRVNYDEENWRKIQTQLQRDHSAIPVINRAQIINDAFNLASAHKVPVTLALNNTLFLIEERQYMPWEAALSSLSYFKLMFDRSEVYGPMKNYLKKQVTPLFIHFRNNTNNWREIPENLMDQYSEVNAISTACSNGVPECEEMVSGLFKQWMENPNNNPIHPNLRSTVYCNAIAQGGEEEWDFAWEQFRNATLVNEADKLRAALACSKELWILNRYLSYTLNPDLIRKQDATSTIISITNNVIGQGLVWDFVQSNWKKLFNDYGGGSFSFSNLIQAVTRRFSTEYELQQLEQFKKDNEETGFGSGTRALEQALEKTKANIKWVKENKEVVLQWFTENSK
T1 sequence (P15144 2-967): as above

- percent of cells positive [1]: 94%
Molecule: Anti-CD13 monoclonal antibody (WM15, Alexa Fluor 488-conjugated)

- fold lower binding concentration against the liposome with a linear peptide [2]: 3.5 fold
B1: low temperature sensitive liposomes targeted with 5 mol % DSPE-PEG-cNGR (peptide)
peptide: KNGRE
modifications: cyclized cKNGRE; conjugated to DSPE-PEG2000CH2COOH (DSPE-PEG-cNGR conjugate 7) and built into a liposome (DPPC:MSPC:DSPE-PEG-cNGR 86.3:9.7:5)

- EC50 [3]: 61 µM
Molecule: cyclo(K(OG)NGRE) (also: Glu side chain coupled to Rink amide resin (side-chain amide), also called compound 6; NGR-OG agent) [cyclic cK(OG)NGRE (SEQ ID NO:2)]

- EC50 [3]: 220 µM
B2: linear form of an NGR-containing peptide (SEQ ID NO:4) (peptide)
peptide: KNGRE
notes: also called linear NGR peptide; free linear NGR peptide
